Test [1] addresses human CD47 on primary human platelets (human) (UniProt Q08722). In words: FACS, binding to primary human platelets, donor1. Background: A flow cytometer gives signals particle by particle.
The target is the same in test [2]. In words: FACS, binding to primary human platelets, donor 2.
Test [3] has as its target human CD47 on primary human red blood cells (human) (UniProt Q08722). In words: FACS, whole cell binding to primary human red blood cells, Donor1.
For test [4] the target is unchanged. The test can be described thus: FACS, whole cell binding to primary human red blood cells, Donor2.
In test [5] the target is human CD47 on Jurkat cells (human) (UniProt Q08722). In words: FACS, whole cell binding to Jurkat cells; middle panel 'Anti-CD47 whole cell binding to Jurkat', nM is from the axis 'Conc(nM)'.
Test [6] shares this target. The test can be described thus: FACS, whole cell binding to Jurkat cells; bottom panel 'Anti-CD47 Binding to CD47+ cells'; fit value printed for the control curve; nM is from the axis.
Test [7] shares this target. The test can be described thus: FACS, whole cell binding to Jurkat cells; top panel 'HLX305 Binding to CD47+ Jurkat Cells'; fit value given for a flat control curve; nM is from the axis.
For test [8] the target is unchanged. The test can be described thus: FACS, whole cell binding to Jurkat cells; middle panel 'Anti-CD47 whole cell binding to Jurkat'; fit value given for a flat control curve; nM is from the axis.
Test [9] shares this target. In words: FACS, whole cell binding to Jurkat cells; bottom panel 'Anti-CD47 Binding to CD47+ cells', nM is from the axis 'Conc. (nM)'.
The target of test [10] is human PDL1 expressed on CHO cells (human) (UniProt Q9NZQ7).
human PDL1 expressed on CHO cells (human), sequence (Q9NZQ7 19-290 limits assumed): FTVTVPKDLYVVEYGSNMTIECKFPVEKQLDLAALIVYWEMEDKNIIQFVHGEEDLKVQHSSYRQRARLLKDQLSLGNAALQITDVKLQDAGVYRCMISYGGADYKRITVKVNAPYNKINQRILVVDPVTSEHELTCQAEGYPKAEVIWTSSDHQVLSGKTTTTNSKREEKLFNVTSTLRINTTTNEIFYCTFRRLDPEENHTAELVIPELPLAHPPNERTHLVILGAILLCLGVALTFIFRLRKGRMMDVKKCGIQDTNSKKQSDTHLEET

The term EC50 (read off the curve) denotes the concentration needed to bring the measured effect to its halfway point. The low end stands for a more potent agent, the high end for a less potent agent. For orientation: EC50 means the concentration at which the effect is half-maximal. High values mean a less potent agent, low ones a more potent agent. As to “IBI322 analog (anti-PDL1/CD47 antibody of US 20220227870 A1, synthesized in-house) (bispecific antibody)”, the EC50 (read off the curve) in test [1] amounted to 1 nM; in [2] it was 0.8 nM; in test [3] it was 2 nM; in [4] it was 2 nM. The substance further yielded an EC50 in [5] of 0.682 nM.

For the substance IgG isotype antibody (negative control), the figures for the EC50 in [6], in test [7] and in test [8] were 50 nM, 6.73 nM and 0.00976 nM, respectively.

Regarding “PF-07257876 analog (anti-PDL1/CD47 antibody of US 20210179716 A1, synthesized in-house) (bispecific antibody)”, the EC50 in [9] came to 8.29 nM.

The substance “Reference Ab 1 (analog of MPDL3280A, synthesized in-house from WO2016007235A1) (antibody)” had an EC50; whole cell PDL1/PD1 blocking assay, NFAT luciferase reporter (RLU) in test [10] of 0.0532 nM.
